From ChEMBL document CHEMBL1275443, “Functional diversity among metallo-beta-lactamases: characterization of the CAR-1 enzyme of Erwinia carotovora” (2008)

What was measured:
[1] = substrate: CC1(C)S[C@@H]2[C@H](NC(=O)[C@H](N)c3ccccc3)C(=O)N2[C@H]1C(=O)O; experiment: (§1) Ratio of Kcat to Km for Janthinobacterium lividum THIN-B
[2] = substrate: C[C@@H](O)[C@H]1C(=O)N2C(C(=O)O)=C(SCCNC=N)C[C@H]12; experiment: as §1
[3] = substrate: CO/N=C(\C(=O)N[C@@H]1C(=O)N2C(C(=O)[O-])=C(C[N+]3(C)CCCC3)CS[C@H]12)c1csc(N)n1; experiment: as §1
[4] = substrate: CO/N=C(\C(=O)N[C@@H]1C(=O)N2C(C(=O)O)=C(COC(C)=O)CS[C@H]12)c1csc(N)n1; experiment: as §1
[5] = substrate: CC(C)(O/N=C(\C(=O)N[C@@H]1C(=O)N2C(C(=O)[O-])=C(C[n+]3ccccc3)CS[C@H]12)c1csc(N)n1)C(=O)O; experiment: as §1
[6] = substrate: CO/N=C(\C(=O)N[C@@H]1C(=O)N2C(C(=O)O)=C(COC(N)=O)CS[C@H]12)c1ccco1; experiment: as §1
[7] = substrate: CCN1CCN(C(=O)N[C@@H](C(=O)N[C@@H]2C(=O)N3[C@@H]2SC(C)(C)[C@@H]3C(=O)O)c2ccccc2)C(=O)C1=O; experiment: as §1
[8] = substrate: C[C@@H](O)[C@H]1C(=O)N2C(C(=O)O)=C(SCCNC=N)C[C@H]12; experiment: (§2) Ratio of Kcat to Km for Chryseobacterium meningosepticum beta-Lactamase GOB-1; conditions: Elizabethkingia meningoseptica
[9] = substrate: CO[C@@]1(NC(=O)Cc2cccs2)C(=O)N2C(C(=O)O)=C(COC(N)=O)CS[C@@H]21; experiment: as §2; conditions: Elizabethkingia meningoseptica
[10] = substrate: CC1(C)S[C@@H]2[C@H](NC(=O)[C@H](C(=O)O)c3ccsc3)C(=O)N2[C@H]1C(=O)O; experiment: as §2; conditions: Elizabethkingia meningoseptica
[11] = substrate: CO/N=C(\C(=O)N[C@@H]1C(=O)N2C(C(=O)[O-])=C(C[N+]3(C)CCCC3)CS[C@H]12)c1csc(N)n1; experiment: as §2; conditions: Elizabethkingia meningoseptica
[12] = substrate: CC1(C)S[C@@H]2[C@H](NC(=O)Cc3ccccc3)C(=O)N2[C@H]1C(=O)O; experiment: as §2; conditions: Elizabethkingia meningoseptica
[13] = substrate: CO/N=C(\C(=O)N[C@@H]1C(=O)N2C(C(=O)O)=C(COC(C)=O)CS[C@H]12)c1csc(N)n1; experiment: as §2; conditions: Elizabethkingia meningoseptica
[14] = substrate: CC(=O)OCC1=C(C(=O)O)N2C(=O)[C@@H](NC(=O)Cc3cccs3)[C@H]2SC1; experiment: as §2; conditions: Elizabethkingia meningoseptica
[15] = substrate: CC(C)(O/N=C(\C(=O)N[C@@H]1C(=O)N2C(C(=O)[O-])=C(C[n+]3ccccc3)CS[C@H]12)c1csc(N)n1)C(=O)O; experiment: as §2; conditions: Elizabethkingia meningoseptica
[16] = substrate: CO/N=C(\C(=O)N[C@@H]1C(=O)N2C(C(=O)O)=C(COC(N)=O)CS[C@H]12)c1ccco1; experiment: as §2; conditions: Elizabethkingia meningoseptica
[17] = substrate: CCN1CCN(C(=O)N[C@@H](C(=O)N[C@@H]2C(=O)N3[C@@H]2SC(C)(C)[C@@H]3C(=O)O)c2ccccc2)C(=O)C1=O; experiment: as §2; conditions: Elizabethkingia meningoseptica
[18] = substrate: CC1(C)S[C@@H]2[C@H](NC(=O)[C@H](N)c3ccccc3)C(=O)N2[C@H]1C(=O)O; experiment: (§3) Ratio of Kcat to Km for Caulobacter crescentus beta-Lactamase CAU-1; conditions: Caulobacter vibrioides
[19] = substrate: C[C@@H](O)[C@H]1C(=O)N2C(C(=O)O)=C(SCCNC=N)C[C@H]12; experiment: as §3; conditions: Caulobacter vibrioides
[20] = substrate: CC1(C)S[C@@H]2[C@H](NC(=O)Cc3ccccc3)C(=O)N2[C@H]1C(=O)O; experiment: as §3; conditions: Caulobacter vibrioides
[21] = substrate: CC(=O)OCC1=C(C(=O)O)N2C(=O)[C@@H](NC(=O)Cc3cccs3)[C@H]2SC1; experiment: as §3; conditions: Caulobacter vibrioides
[22] = substrate: CC(C)(O/N=C(\C(=O)N[C@@H]1C(=O)N2C(C(=O)[O-])=C(C[n+]3ccccc3)CS[C@H]12)c1csc(N)n1)C(=O)O; experiment: as §3; conditions: Caulobacter vibrioides
[23] = substrate: CO/N=C(\C(=O)N[C@@H]1C(=O)N2C(C(=O)O)=C(COC(N)=O)CS[C@H]12)c1ccco1; experiment: as §3; conditions: Caulobacter vibrioides
[24] = substrate: CCN1CCN(C(=O)N[C@@H](C(=O)N[C@@H]2C(=O)N3[C@@H]2SC(C)(C)[C@@H]3C(=O)O)c2ccccc2)C(=O)C1=O; experiment: as §3; conditions: Caulobacter vibrioides
[25] = substrate: CC1(C)S[C@@H]2[C@H](NC(=O)[C@H](N)c3ccccc3)C(=O)N2[C@H]1C(=O)O; experiment: (§4) Ratio of Kcat to Km for Pseudomonas maltophilia ULA-511 beta-Lactamase L-1; conditions: Stenotrophomonas maltophilia
[26] = substrate: C[C@@H](O)[C@H]1C(=O)N2C(C(=O)O)=C(SCCNC=N)C[C@H]12; experiment: as §4; conditions: Stenotrophomonas maltophilia
[27] = substrate: CO[C@@]1(NC(=O)C(C(=O)O)c2ccsc2)C(=O)N2[C@@H](C(=O)O)C(C)(C)S[C@@H]21; experiment: as §4; conditions: Stenotrophomonas maltophilia
[28] = substrate: CO[C@@]1(NC(=O)Cc2cccs2)C(=O)N2C(C(=O)O)=C(COC(N)=O)CS[C@@H]21; experiment: as §4; conditions: Stenotrophomonas maltophilia
[29] = substrate: CC1(C)S[C@@H]2[C@H](NC(=O)[C@H](C(=O)O)c3ccsc3)C(=O)N2[C@H]1C(=O)O; experiment: as §4; conditions: Stenotrophomonas maltophilia
[30] = substrate: CO/N=C(\C(=O)N[C@@H]1C(=O)N2C(C(=O)[O-])=C(C[N+]3(C)CCCC3)CS[C@H]12)c1csc(N)n1; experiment: as §4; conditions: Stenotrophomonas maltophilia
[31] = substrate: CC1(C)S[C@@H]2[C@H](NC(=O)Cc3ccccc3)C(=O)N2[C@H]1C(=O)O; experiment: as §4; conditions: Stenotrophomonas maltophilia
[32] = substrate: CO/N=C(\C(=O)N[C@@H]1C(=O)N2C(C(=O)O)=C(COC(C)=O)CS[C@H]12)c1csc(N)n1; experiment: as §4; conditions: Stenotrophomonas maltophilia
[33] = substrate: CC(C)(O/N=C(\C(=O)N[C@@H]1C(=O)N2C(C(=O)[O-])=C(C[n+]3ccccc3)CS[C@H]12)c1csc(N)n1)C(=O)O; experiment: as §4; conditions: Stenotrophomonas maltophilia
[34] = substrate: CO/N=C(\C(=O)N[C@@H]1C(=O)N2C(C(=O)O)=C(COC(N)=O)CS[C@H]12)c1ccco1; experiment: as §4; conditions: Stenotrophomonas maltophilia
[35] = substrate: CCN1CCN(C(=O)N[C@@H](C(=O)N[C@@H]2C(=O)N3[C@@H]2SC(C)(C)[C@@H]3C(=O)O)c2ccccc2)C(=O)C1=O; experiment: as §4; conditions: Stenotrophomonas maltophilia

B1: THIN-B proetin (Janthinobacterium lividum), Q9AEF9 (protein)
chain: MTLLAKLMLATVATMSAATVQAKTPAPKPDTPVDCDSCKAWNGEVTPFNVFGNTWYVGTAGLSAVLVTSPQGHVLLDGALPQSAPLIIANIAALGFRIEDVKFILNSHAHWDHAGGIAALQAASGATVVASASGALGLQSGTNGKDDPQFQAKPVVHVAKVEKVKVVGEGDAIKLGPLNLTAHMTPGHTPGATTWTWTSCEGQRCLDVVYADSLNPYSSGDFTYTGKGDGPDISASFAASIAKVAALPCDIILSVHPDSTGVLDKAAKRSGEHNPFIDANACRAYAATADAMLTKRLAKERGVALPAAAPAAQHAH
[1]
  kcat/Km: 3.7 ×10⁵ /M/s
[2]
  kcat/Km: 1.5 ×10⁶ /M/s
[3]
  kcat/Km: 7.9 ×10³ /M/s
[4]
  kcat/Km: 2 ×10⁶ /M/s
[5]
  kcat/Km: 1.4 ×10⁵ /M/s
[6]
  kcat/Km: 2.8 ×10⁶ /M/s
[7]
  kcat/Km: 2 ×10⁵ /M/s

B2: GOB-1 metallo-beta-lactamase (Elizabethkingia meningoseptica), A4GRB7 (protein)
chain: MRNFATLFFMFICLGLNAQVVKEPENMPKEWNQTYEPFRIAGNLYYVGTYDLASYLIVTDKGNILINTGTAESLPIIKANIQKLGFNYKDIKILLLTQAHYDHTGALQDLKTETGAKFYADKADADVLRTGGKSDYEMGKYGVTFKPVTPDKTLKDQDKITLGNTILTLLHHPGHTKGSCSFIFETKDEKRKYRVLIANMPSVIVDKKFSEVTAYPNIQSDYAYTFKAMKNLDFDLWVASHASQFDLHEKRKEGDPYNPQLFMDKQSYFQNLNDLEKSYLDKIKKDSQDK
[8]
  kcat/Km: 6.6 ×10⁵ /M/s
[9]
  kcat/Km: 2.5 ×10⁵ /M/s
[10]
  kcat/Km: 5.2 ×10⁵ /M/s
[11]
  kcat/Km: 2 ×10⁵ /M/s
[12]
  kcat/Km: 1.9 ×10⁷ /M/s
[13]
  kcat/Km: 8.5 ×10⁵ /M/s
[14]
  kcat/Km: 6.7 ×10⁵ /M/s
[15]
  kcat/Km: 7.6 ×10⁵ /M/s
[16]
  kcat/Km: 9.8 ×10⁵ /M/s
[17]
  kcat/Km: 1.7 ×10⁶ /M/s

B3: Metallo-beta-lactamase (Caulobacter vibrioides), Q8KKG1 (protein)
chain: MKRLILAAAASLLALASAAHADDMPANWTKPTKPYRVVGNIYYVGTEGISSWLITSSEGHVVLDGGPNAETGKLVERNITALGFQLADVKILINTHAHYDHAGGLAQLKADTGAKLWISRDDAPAMAAGHHIGDNIYGPTPMPAAKPDRSFGDQTKLKLGEIAMVAHLTPGHTIGCTSWTTAVVEKGRPLTVTFPCSLSVAGNVLVGNKTHRTIVADYRASFAKLRAIPTDVMLPAHEEQGNLLAKRQKQLRGDPNAFVDPGELARFVDASEAAFNKELARQQAAGPNR
[18]
  kcat/Km: 5 ×10⁵ /M/s
[19]
  kcat/Km: 2 ×10⁵ /M/s
[20]
  kcat/Km: 4.5 ×10⁵ /M/s
[21]
  kcat/Km: 4.3 ×10⁵ /M/s
[22]
  kcat/Km: 2 ×10³ /M/s
[23]
  kcat/Km: 1.4 ×10⁴ /M/s
[24]
  kcat/Km: 5.7 ×10⁵ /M/s

B4: Beta-lactamase L1 (Stenotrophomonas maltophilia), P52700 (protein)
chain: MRSTLLAFALAVALPAAHTSAAEVPLPQLRAYTVDASWLQPMAPLQIADHTWQIGTEDLTALLVQTPDGAVLLDGGMPQMASHLLDNMKARGVTPRDLRLILLSHAHADHAGPVAELKRRTGAKVAANAESAVLLARGGSDDLHFGDGITYPPANADRIVMDGEVITVGGIVFTAHFMAGHTPGSTAWTWTDTRNGKPVRIAYADSLSAPGYQLQGNPRYPHLIEDYRRSFATVRALPCDVLLTPHPGASNWDYAAGARAGAKALTCKAYADAAEQKFDGQLAKETAGAR
[25]
  kcat/Km: 4.4 ×10⁶ /M/s
[26]
  kcat/Km: 7.3 ×10⁵ /M/s
[27]
  kcat/Km: 1.2 ×10⁶ /M/s
[28]
  kcat/Km: 5.5 ×10⁵ /M/s
[29]
  kcat/Km: 2.7 ×10⁶ /M/s
[30]
  kcat/Km: 1.69 ×10⁴ /M/s
[31]
  kcat/Km: 2.2 ×10⁷ /M/s
[32]
  kcat/Km: 2.6 ×10⁶ /M/s
[33]
  kcat/Km: 1.8 ×10⁵ /M/s
[34]
  kcat/Km: 2.7 ×10⁶ /M/s
[35]
  kcat/Km: 7 ×10⁶ /M/s
